Source: publication PMC5099872 (Cell Research, 2016)

B1: Sre1-CTD WY mutant, residues 628-896, W702D/Y703D (domain or fragment, Schizosaccharomyces pombe, UniProt Q9UUD1 628-896, looked up)
chain: QHSKSSVHAELRELPECTANLIENSHADDVFSPNMVERLWVLAKCTRDSAQMSDSIISSLSDVLVLSPLEVLASDDAADLLDALLMESLSRKVEISEIEEIISLCPKNSSIIRHALLAKLVLFPENTADSLNEVLAAYKNTLDLCSQDKRKQSSVLKINLSKLFTLHSCLSLALQRLGYGDVSKRMYQEIFVPDSDADITPLSFIISWTALNTFAPICTSPKENDVVEKMAMYVRTAIGTLKIQDLKLSRKLINSCIDIGSRLQEDLGY
B2: Sre1-CTD ΔC-tail variant, residues 628-876, C644S/C672S (domain or fragment, Schizosaccharomyces pombe, UniProt Q9UUD1 628-876, looked up)
chain: QHSKSSVHAELRELPESTANLIENSHADDVFSPNMVERLWVLAKSTRDSAQMSDSIISSLSDVLVLSPLEVLASWYAADLLDALLMESLSRKVEISEIEEIISLCPKNSSIIRHALLAKLVLFPENTADSLNEVLAAYKNTLDLCSQDKRKQSSVLKINLSKLFTLHSCLSLALQRLGYGDVSKRMYQEIFVPDSDADITPLSFIISWTALNTFAPICTSPKENDVVEKMAMYVRTAIGTLKIQDLKLS

Legend:
[1] = biological target: the molecule itself; assay: AUC
[2] = biological target: the molecule itself; assay: crystal structure

Protein	stoichiometry N [1]	stoichiometry N [2]
B1	2	
B2		2
